The labels stand for the following.
B1: 373_E12 (antibody, V domains shown)
VH: EVQLLESGGGLVQPGGSLRLSCAASGFTFSSYSMNWVRQAPGKGLEWVANINYNGGYTGYADSVKGRFTISRDNSKNTLYLQMNSLRAEDTAVYYCARSANWHDTALDYWGQGTLVTVSS
VL: DIQMTQSPSSLSASVGDRVTITCRASQSILSYVNWYQQKPGKAPKLVIYAATSRASGVPSRFSGSGSGTDFTLTISSLQPEDFATYYCQQSYDTPLTFGGGTKVEIK
B2: 374_B04 (antibody, V domains shown)
VH: EVQLLESGGGLVQPGGSLRLSCAASGFTFSSYSMNWVRQAPGKGLEWVSNINYNSGYTGYADSVKGRFTISRDNSKNTLYLQMNSLRAEDTAVYYCARSANWHDTALDYWGQGTLVTVSS
VL: DIQMTQSPSSLSASVGDRVTITCRASQSIVSYLNWYQQKPGKAPKLLIYAVTSRASGVPSRFSGSGSGTDFTLTISSLQPEDFATYYCQQSYESPLTFGGGTKVEIK
B3: 374_A07 (antibody, V domains shown)
VH: EVQLLESGGGLVQPGGSLRLSCAASGFTFSSYSMNWVRQAPGKGLEWVSGINYNSGYKGYADSVKGRFTISRDNSKNTLYLQMNSLRAEDTAVYYCARSANWHDTALDYWGQGTLVTVSS
VL: DIQMTQSPSSLSASVGDRVTITCRASQSILSYVNWYQQKPGKAPKLLIYAVTSRASGVPSRFSGSGSGTDFTLTISSLQPEDFATYYCQQSYDLPLTFGGGTKVEIK
B4: 374_B06 (antibody, V domains shown)
VH: EVQLLESGGGLVQPGGSLRLSCAASGFTFDSYSMNWVRQAPGKGLEWVAGINYNSGYKGYADSVKGRFTISRDNSKNTLYLQMNSLRAEDTAVYYCARSANWHDTHLDYWGQGTLVTVSS
VL: DIQMTQSPSSLSASVGDRVTITCRASQSILTYVNWYQQKPGKAPKLLIYAATSRASGVPSRFSGSGSGTDFTLTISSLQPEDFATYYCQQSYDTPLTFGGGTKVEIK
B5: 373_G10 (antibody, V domains shown)
VH: EVQLLESGGGLVQPGGSLRLSCAASGFTFSDYGMNWVRQAPGKGLEWVSNINYNGGYKSYADSVKGRFTISRDNSKNTLYLQMNSLRAEDTAVYYCARSANWHDTALDYWGQGTLVTVSS
VL: DIQMTQSPSSLSASVGDRVTITCRASQSIVSYVNWYQQKPGKAPKLLIYAATSRASGVPSRFSGSGSGTDFTLTISSLQPEDFATYYCQQSYDLPLTFGGGTKVEIK
B6: 373_H01 (antibody, V domains shown)
VH: EVQLLESGGGLVQPGGSLRLSCAASGFTFDSYSMNWVRQAPGKGLEWVANINYNGGYTGYADSVKGRFTISRDNSKNTLYLQMNSLRAEDTAVYYCARSANWHDTALDYWGQGTLVTVSS
VL: DIQMTQSPSSLSASVGDRVTITCRASQSILSYLNWYQQKPGKAPKLVIYAATSRASGVPSRFSGSGSGTDFTLTISSLQPEDFATYYCQQSYDNPLTFGGGTKVEIK
B7: 373_G12 (antibody, V domains shown)
VH: EVQLLESGGGLVQPGGSLRLSCAASGFTFSSYSMNWVRQAPGKGLEWVSNINYNGGYTSYADSVKGRFTISRDNSKNTLYLQMNSLRAEDTAVYYCARSANWHDTALDYWGQGTLVTVSS
VL: DIQMTQSPSSLSASVGDRVTITCRASQSILSYLNWYQQKPGKAPKLLIYATTSLASGVPSRFSGSGSGTDFTLTISSLQPEDFATYYCQQSYNSPLTFGGGTKVEIK
B8: 373_H05 (antibody, V domains shown)
VH: EVQLLESGGGLVQPGGSLRLSCAASGFTFSDYSMNWVRQAPGKGLEWVANINYNGGYKGYADSVKGRFTISRDNSKNTLYLQMNSLRAEDTAVYYCARSANWHDTALDYWGQGTLVTVSS
VL: DIQMTQSPSSLSASVGDRVTITCRASQSILTYVNWYQQKPGKAPKLVIYAATSRASGVPSRFSGSGSGTDFTLTISSLQPEDFATYYCQQSYETPLTFGGGTKVEIK

This test concerns the target Human Fc (human). As to the kind of experiment: ELISA, negative control. For orientation: ELISA stands for enzyme-linked immunosorbent assay.
On to B1, for which the optical density is 0.17 OD.

For B2, the optical density amounted to 0.222 OD.

The molecule B3 yielded an optical density of 0.206 OD.

In turn, B4 registered an optical density of 0.157 OD.

B5 had an optical density of 0.2 OD.

In turn, B6 returned an optical density of 0.198 OD.

B7 had an optical density of 0.174 OD.

B8 had an optical density of 0.201 OD.

Values taken from patent publication US20210380703A1.
